Measurements reported in patent publication US20040259802.

Molecular target: T1, 19-mer (SEQ ID NO:11) cleavage domain peptide
T1 chain: PRCGNPDVANYNFFPRKPK

B1: Proenzyme pro-MMP-9 (protein)
chain: APRQRQSTLVLFPGDLRTNLTDRQLAEEYLYRYGYTRVAEMRGESKSLGPALLLLQKQLSLPETGELDSATLKAMRTPRCGVPDLGRFQTFEGDLKWHHHNITYWIQNYSEDLPRAVIDDAFARAFALWSAVTPLTFTRVYSRDADIVIQFGVAEHGDGYPFDGKDGLLAHAFPPGPGIQGDAHFDDDELWSLGKGVVVPTRFGNADGAACHFPFIFEGRSYSACTTDGRSDGLPWCSTTANYDTDDRFGFCPSERLYTQDGNADGKPCQFPFIFQGQSYSACTTDGRSDGYRWCATTANYDRDKLFGFCPTRADSTVMGGNSAGELCVFPFTFLGKEYSTCTSEGRGDGRLWCATTSNFDSDKKWGFCPDQGYSLFLVAAHEFGHALGLDHSSVPEALMYPMYRFTEGPPLHKDDVNGIRHLYGPRPEPEPRPPTTTTPQPTAPPTVCPTGPPTVHPSERPTAGPTGPPSAGPTGPPTAGPSTATTVPLSPVDDACNVNIFDAIAEIGNQLYLFKDGKYWRFSEGRGSRPQGPFLIADKWPALPRKLDSVFEERLSKKLFFFSGRQVWVYTGASVLGPRRLDKLGLGADVAQVTGALRSGRGKMLLFSGRRLWRFDVKAQMVDPRSASEVDRMFPGVPLDTHDVFQYREKAYFCQDRFYWRVSSRSELNQVDQVGYVTYDILQCPED
conversion of pro-MMP-9 into prodomain and active enzyme by stromilysin (HPLC splicing assay): Titrating the standard splicing reaction with the 19-mer (SEQ ID NO:11) peptide prevents the conversion of pro-MMP-9 into the prodomain and the active enzyme. Splicing can be inhibited in a dose dependent manner with micromolar 19-mer
